Two variants from IntAct's records for PubMed 24413684 can be followed below.

B1: Programmed cell death protein 4 (Homo sapiens), Q53EL6 (parent)
chain: MDVENEQILNVNPADPDNLSDSLFSGDEENAGTEEIKNEINGNWISASSINEARINAKAKRRLRKNSSRDSGRGDSVSDSGSDALRSGLTVPTSPKGRLLDRRSRSGKGRGLPKKGGAGGKGVWGTPGQVYDVEEVDVKDPNYDDDQENCVYETVVLPLDERAFEKTLTPIIQEYFEHGDTNEVAEMLRDLNLGEMKSGVPVLAVSLALEGKASHREMTSKLLSDLCGTVMSTTDVEKSFDKLLKDLPELALDTPRAPQLVGQFIARAVGDGILCNTYIDSYKGTVDCVQARAALDKATVLLSMSKGGKRKDSVWGSGGGQQSVNHLVKEIDMLLKEYLLSGDISEAEHCLKELEVPHFHHELVYEAIIMVLESTGESTFKMILDLLKSLWKSSTITVDQMKRGYERIYNEIPDINLDVPHSYSVLERFVEECFQAGIISKQLRDLCPSRGRKRFVSEGDGGRLKPESY

Variants of B1 are the subject of the experiment. Particulars: with if4a1_human EIF4A1, P60842.
Sequence of if4a1_human EIF4A1, P60842 (P60842 whole entry): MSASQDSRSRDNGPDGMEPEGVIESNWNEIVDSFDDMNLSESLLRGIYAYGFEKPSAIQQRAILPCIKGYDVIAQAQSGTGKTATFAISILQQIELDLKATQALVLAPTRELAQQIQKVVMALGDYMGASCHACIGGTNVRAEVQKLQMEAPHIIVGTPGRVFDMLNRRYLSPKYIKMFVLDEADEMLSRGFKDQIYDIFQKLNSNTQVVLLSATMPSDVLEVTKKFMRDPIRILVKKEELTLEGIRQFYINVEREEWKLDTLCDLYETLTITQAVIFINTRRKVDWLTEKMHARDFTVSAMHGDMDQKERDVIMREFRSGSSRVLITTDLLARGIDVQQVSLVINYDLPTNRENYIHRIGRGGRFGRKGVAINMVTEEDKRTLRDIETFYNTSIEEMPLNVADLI
On to D418A, for which the “effect of a mutation on the interaction” value was “decreasing interaction”.
Next, D253A;D418A: “decreasing interaction”.
